Publication doi:10.1101/2023.10.06.561239 (bioRxiv, 2023)

Target: T1, human DMC1, untagged, purified recombinant (human, UniProt Q14565 1-340)
T1 sequence (looked up): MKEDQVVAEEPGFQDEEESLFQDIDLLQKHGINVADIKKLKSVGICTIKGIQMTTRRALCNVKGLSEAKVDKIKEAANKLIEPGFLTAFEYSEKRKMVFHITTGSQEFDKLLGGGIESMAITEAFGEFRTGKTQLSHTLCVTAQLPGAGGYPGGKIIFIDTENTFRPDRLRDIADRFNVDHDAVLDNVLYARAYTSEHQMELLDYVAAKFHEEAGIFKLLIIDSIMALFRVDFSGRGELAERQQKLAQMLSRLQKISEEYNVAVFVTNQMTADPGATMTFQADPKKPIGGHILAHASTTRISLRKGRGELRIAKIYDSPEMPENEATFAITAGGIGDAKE
Assay: pull-down

B1: human his-GST-TEV-BRCA2 F2s3 (aa 2379-2433), wild type (domain or fragment, UniProt P51587 2379-2433, looked up)
chain: GHPFYQVSATRNEKMRHLITTGRPTKVFVPPFKTKSHFHRVEQCVRNINLEENRQ
B1: binds.
